# Source: paper PMC12147174, “PEX1^G843D remains functional in peroxisome biogenesis but is rapidly degraded by the proteasome” (The Journal of Biological Chemistry, 2025)
# Changes are numbered by the printed parent chain.
# T1: ScPex1^WT (Pex1-FLAG), Saccharomyces cerevisiae (Saccharomyces cerevisiae, UniProt P24004 1-1043)
# T1 construct: Pex1, Saccharomyces cerevisiae; Expressed from pETDuet; Forms a heterohexamer with Pex6; also called yeast Pex1; source: E. coli BL21, coexpressed with His-Pex6, purified (Ni-NTA, anti-FLAG M2 agarose, Superose 6)
# T1 sequence (looked up): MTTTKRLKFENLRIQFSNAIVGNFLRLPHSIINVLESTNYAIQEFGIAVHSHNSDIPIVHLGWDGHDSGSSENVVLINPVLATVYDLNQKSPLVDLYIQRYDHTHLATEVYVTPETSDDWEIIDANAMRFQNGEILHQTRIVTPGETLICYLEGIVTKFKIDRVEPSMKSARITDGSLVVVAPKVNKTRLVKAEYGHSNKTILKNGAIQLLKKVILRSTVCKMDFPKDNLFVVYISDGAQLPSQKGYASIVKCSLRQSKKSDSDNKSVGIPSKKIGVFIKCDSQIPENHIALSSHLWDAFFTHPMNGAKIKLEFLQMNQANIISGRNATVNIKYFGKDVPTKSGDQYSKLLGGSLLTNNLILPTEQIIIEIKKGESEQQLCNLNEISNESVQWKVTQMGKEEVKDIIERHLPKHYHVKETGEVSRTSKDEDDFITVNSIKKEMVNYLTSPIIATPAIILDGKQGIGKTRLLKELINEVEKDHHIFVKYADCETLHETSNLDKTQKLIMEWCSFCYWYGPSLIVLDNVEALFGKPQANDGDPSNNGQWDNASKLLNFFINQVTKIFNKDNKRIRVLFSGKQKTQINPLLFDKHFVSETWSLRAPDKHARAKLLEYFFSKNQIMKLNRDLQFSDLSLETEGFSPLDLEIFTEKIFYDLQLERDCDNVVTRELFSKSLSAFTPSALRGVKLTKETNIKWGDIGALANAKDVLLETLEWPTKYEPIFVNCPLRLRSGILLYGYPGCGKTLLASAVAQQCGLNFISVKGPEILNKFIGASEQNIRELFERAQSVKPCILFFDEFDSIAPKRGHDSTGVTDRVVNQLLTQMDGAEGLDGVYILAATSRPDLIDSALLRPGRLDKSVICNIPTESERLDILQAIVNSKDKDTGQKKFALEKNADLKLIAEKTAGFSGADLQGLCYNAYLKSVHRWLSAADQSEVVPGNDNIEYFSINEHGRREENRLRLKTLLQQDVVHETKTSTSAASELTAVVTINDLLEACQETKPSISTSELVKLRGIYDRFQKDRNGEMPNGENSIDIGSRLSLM
# T2: ScPex1^G700D (Pex1-FLAG G700D), Saccharomyces cerevisiae (Saccharomyces cerevisiae, UniProt P24004 1-1043, G700D)
# T2 construct: Pex1, Saccharomyces cerevisiae, with G700D (homologous to human G843D); source: E. coli BL21, coexpressed with His-Pex6, purified (Ni-NTA, anti-FLAG M2 agarose, Superose 6)
# T2 sequence (looked up): T1 sequence (looked up) with G700D
# B1: ScPex6 (His-Pex6), Saccharomyces cerevisiae (natural protein)
# chain: MKASLTFSLSGIYAPCSISRDIYLEYGDKKAECLYGTIRLPQYGPGCTPGKIVHCVLDDSLPFCSIVVPSKLFGFMPTQPTMDFCYFEPILDNVVPVLDSVTFLINEQLYSKLMDLPQEMQQIQFLHYKYNINSMETVVHSRDILTSGLCQILNCSPFPQGLVDFTETQLILVNDTEQKLSALKYANEDEEYALPKIGTNSALSIDLESLPCTISRDLLRPAPHINDDNSIYAFTDAETLLRLDVTSGSFITVSNMGCVRLVKLFVLLLPNGFKKRTIYAPPKIIASFPDCSVVTISKSNIGHTDIPIANQVFISRVGGWLQSQKCFQNIILTTLKKFFSESKRILCQNDLIPIAFDSSMADLNIAEENDESDDEDELGQYYKNDSLVWFFVTSAELDCFSKDNSHFIIDPNRTKLITTNITNRRPLPLSRSNLQRYYGFAETFYYDLHIFPYVRQLVNILETSFNCSQRGITLNASVLLHSTTNNVGKATMVRFASKYLGIHLLEIDCLSLTSNSRQLDSTSKIIGYIRAKCENVLPYASPAVIFLAHLDSILLDVNANQDPEAIKLQKSINFEMSKLLDDFTFKFPGTTFVGSVNNIDNVPSSFRSHMRFEILVPVPSEAQRLRIFQWYLSSHELNRDVQQKVPVSYMDNISFSSLSSYSAGLTPLDIKSIVETARMTATARFYQESKKCGWLPQSILITQEDLSKATSKARNEFSVSIGAPQIPNVTWDDIGGIDFVKGEILDTIDMPLKHPELFTSGMKKRSGILFYGPPGTGKTLMAKAIATNFSLNFFSVKGPELLNMYIGESEANVRRVFQKAREAKPCVIFFDEIDSVAPKRGNQGDSGGVMDRIVSQLLAELDGMSTDADGVFVIGATNRPDLLDEALLRPGRFDKLLYLGIPDTDTKQLNILEALTRKFVLDNDVKLIELAKLCPFNYTGADFYALCSDAMLNAMSRIARMVEKKVSQHNELTGENISTRRWFDKIATKEDTKVVVKMEDFLKAQEQLTPSVSRAELNHYEAVRANFEGA
# notes: Pex6, Saccharomyces cerevisiae; Expressed from pCOLADuet; source: E. coli BL21, coexpressed with Pex1-FLAG, purified (Ni-NTA, anti-FLAG M2 agarose, Superose 6)
# Columns and labels:
# [1] = target: T1, ScPex1^WT (Pex1-FLAG), Saccharomyces …; assay: SEC; coexpressed complex purified by Ni-NTA and anti-FLAG resin, equal concentrations of FLAG eluate loaded on Superose 6 in GF buffer (50-60 mM Hepes pH 7.6, 50 mM NaCl, 50 mM KCl, 5% glycerol, 10 mM MgCl2, 1 mM ATP); fractions by SDS-PAGE and Coomassie; settings: both partners purified
# [2] = target: T2, ScPex1^G700D (Pex1-FLAG G700D), …; assay: as above; settings: both partners purified
binder,measurement,setting,value
B1,binding result,[1],binds
same,binding result,[2],binds
